Entries after “also recorded” stand apart in the source; their conditions may differ.
Key:
[1] = test system: SARS-CoV-2 infection, Vero cells; format: cell-based, SARS-CoV-2 (African green monkey cells); conditions: 40 µg/mL, pre-incubation 40-60 min, mean of three independent experiments
plasminogen = conditions: cited from earlier work
From the text: Since structures of the catalytic domains of serine proteases display a high level of identity ([10]), we have tested the inhibitory effect of LF and three LF-derived synthetic peptides against other serine proteases, including TMPRSS2, elastase and trypsin, in addition to plasmin. […] In contrast, uPA-independent Plg conversion by the bacterial enzyme streptokinase was not affected by LF ([11]). […] Similarly, only pLF1 but neith ...

plasmin = target: T1, plasmin (Homo sapiens, UniProt P00747); experiment: In vitro proteolysis assay, plasmin; format: biochemical; conditions: 37°C
T1 construct: purchased Roche Diagnostics GmbH, Mannheim, Germany #10602361001; host or cells: human plasma
T1 sequence (P00747 581-810 limits assumed): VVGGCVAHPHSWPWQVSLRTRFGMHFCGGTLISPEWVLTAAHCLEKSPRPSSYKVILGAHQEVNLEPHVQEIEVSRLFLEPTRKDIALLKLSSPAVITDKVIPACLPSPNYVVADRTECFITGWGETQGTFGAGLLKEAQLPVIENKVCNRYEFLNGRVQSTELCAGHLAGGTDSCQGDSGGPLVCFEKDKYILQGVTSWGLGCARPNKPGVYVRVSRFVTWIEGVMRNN
T1 sequence (P00747 97-580 limits assumed): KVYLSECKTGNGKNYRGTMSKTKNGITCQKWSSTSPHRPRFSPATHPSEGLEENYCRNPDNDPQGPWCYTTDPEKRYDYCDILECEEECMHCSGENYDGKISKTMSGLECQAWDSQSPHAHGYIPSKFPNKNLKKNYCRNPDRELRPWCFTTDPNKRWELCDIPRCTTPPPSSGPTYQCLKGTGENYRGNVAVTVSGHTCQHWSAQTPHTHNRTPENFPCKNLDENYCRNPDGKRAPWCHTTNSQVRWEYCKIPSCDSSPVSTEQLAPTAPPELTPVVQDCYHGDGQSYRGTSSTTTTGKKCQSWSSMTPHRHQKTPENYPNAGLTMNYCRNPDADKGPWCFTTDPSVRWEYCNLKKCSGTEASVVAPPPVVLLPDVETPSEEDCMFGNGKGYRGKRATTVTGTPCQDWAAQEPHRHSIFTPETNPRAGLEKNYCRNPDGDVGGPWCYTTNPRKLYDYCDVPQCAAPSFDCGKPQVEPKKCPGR
Description: (§1) Figure 1 Effect of LF and the LF-derived peptides pLF1-pLF3 on the activity of serine proteases. Proteolytic activities of purified TMPRSS2 (A), plasmin (B), elastase (C), and trypsin (D) were measured with or without peptides pLF1, pLF2, pLF3, LF or the control peptide pCTR at 37°C in Tris-HCl buffer using the fluorogenic substrate Boc-Gln-Ala-Arg-AMC. The reaction was monitored using an ELISA reader for the indicated time intervals.
The proteolytic activities of plasmin (10 nM; from human plasma; #10602361001, Roche Diagnostics GmbH, Mannheim, Germany), trypsin (10 nM; from bovine pancreas; #T1005, Sigma-Aldrich, St. Louis, MO), elastase (20 nM; from porcine pancreas; #E1250, Sigma-Aldrich) and TMPRSS2 (25 nM; recombinant protein produced in mammalian cells; #MBS1193731, MyBioSource, San Diego, CA) were measured in a Nunc black fluorescence-based cell assay plate (Sigma-Aldrich) in Tris-HCl buffer (20 mM, pH 8.0, 150 mM NaCl). […] The reaction was measured using an ELISA plate reader (Synergy H1 BioTek microplate reader, Winooski, Vermont, U.S., or TECAN GENios, GMI, USA) under the excitation wavelength of 380 nm and the emission wavelength of 460 nm at the indicated time points. […]

TMPRSS2 = target: T2, TMPRSS2 (Homo sapiens, UniProt O15393); experiment: In vitro proteolysis assay, TMPRSS2, fluorogenic substrate Boc-Gln-Ala-Arg-AMC; format: biochemical
T2 construct: TMPRSS2 (25 nM; recombinant protein produced in mammalian cells; #MBS1193731, MyBioSource, San Diego, CA); purchased MyBioSource, San Diego, CA #MBS1193731; host or cells: mammalian cells
T2 sequence (O15393 256-492 limits assumed): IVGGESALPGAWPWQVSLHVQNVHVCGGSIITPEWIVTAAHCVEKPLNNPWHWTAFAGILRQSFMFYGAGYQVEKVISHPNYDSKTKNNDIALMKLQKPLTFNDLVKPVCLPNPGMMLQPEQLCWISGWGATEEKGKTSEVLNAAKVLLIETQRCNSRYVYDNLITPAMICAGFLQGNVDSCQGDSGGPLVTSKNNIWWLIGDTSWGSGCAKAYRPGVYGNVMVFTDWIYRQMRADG
T2 sequence (O15393 106-255 limits assumed): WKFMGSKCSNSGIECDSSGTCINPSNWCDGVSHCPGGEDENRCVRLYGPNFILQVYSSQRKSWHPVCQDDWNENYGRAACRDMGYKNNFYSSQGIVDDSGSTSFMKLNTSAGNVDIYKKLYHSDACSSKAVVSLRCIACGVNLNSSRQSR
Description: as §1
(§2) The proteolytic activities of plasmin (10 nM; from human plasma; #10602361001, Roche Diagnostics GmbH, Mannheim, Germany), trypsin (10 nM; from bovine pancreas; #T1005, Sigma-Aldrich, St. Louis, MO), elastase (20 nM; from porcine pancreas; #E1250, Sigma-Aldrich) and TMPRSS2 (25 nM; recombinant protein produced in mammalian cells; #MBS1193731, MyBioSource, San Diego, CA) were measured in a Nunc black fluorescence-based cell assay plate (Sigma-Aldrich) in Tris-HCl buffer (20 mM, pH 8.0, 150 mM NaCl). […] The reaction was measured using an ELISA plate reader (Synergy H1 BioTek microplate reader, Winooski, Vermont, U.S., or TECAN GENios, GMI, USA) under the excitation wavelength of 380 nm and the emission wavelength of 460 nm at the indicated time points.

[2] = cited from earlier work
elastase = experiment: In vitro proteolysis assay, elastase; format: biochemical, porcine; conditions: elastase 20 nM; 37°C, Tris-HCl buffer, Boc-Gln-Ala-Arg-AMC
Description: as §1, §2

COVID-19 = conditions: supplementary LF treatment; cited from earlier work
From the text: (§3) The human glycoprotein LF is synthetized by exocrine glands and is present at high concentrations in secretory body fluids, particularly in milk, but also within inflammatory granules of neutrophils. […] This effect was mainly attributed to its immunomodulatory properties ([26]).

SARS-CoV-2 [3] = conditions: cited from earlier work
From the text: as §3

SARS-CoV-2 [4] = format: cell-based; conditions: summary statement
[5] = cited from earlier work; remark: listed apart in the source
SARS-CoV-1 = conditions: cited from earlier work
[6] = test system: SARS-CoV-2 infection, Calu-3 cells; format: cell-based, SARS-CoV-2 (human cells); conditions: concentration not given, pre-incubation approx. 1 h, four independent experiments
SARS-CoV-2 [7] = conditions: cited from earlier work; remark: listed apart in the source

B1: LF: human milk glycoprotein lactoferrin; recombinant human LF (L1294, Sigma-Aldrich) (protein, UniProt P02788 1-710, looked up)
chain: MKLVFLVLLFLGALGLCLAGRRRSVQWCAVSQPEATKCFQWQRNMRKVRGPPVSCIKRDSPIQCIQAIAENRADAVTLDGGFIYEAGLAPYKLRPVAAEVYGTERQPRTHYYAVAVVKKGGSFQLNELQGLKSCHTGLRRTAGWNVPIGTLRPFLNWTGPPEPIEAAVARFFSASCVPGADKGQFPNLCRLCAGTGENKCAFSSQEPYFSYSGAFKCLRDGAGDVAFIRESTVFEDLSDEAERDEYELLCPDNTRKPVDKFKDCHLARVPSHAVVARSVNGKEDAIWNLLRQAQEKFGKDKSPKFQLFGSPSGQKDLLFKDSAIGFSRVPPRIDSGLYLGSGYFTAIQNLRKSEEEVAARRARVVWCAVGEQELRKCNQWSGLSEGSVTCSSASTTEDCIALVLKGEADAMSLDGGYVYTAGKCGLVPVLAENYKSQQSSDPDPNCVDRPVEGYLAVAVVRRSDTSLTWNSVKGKKSCHTAVDRTAGWNIPMGLLFNQTGSCKFDEYFSQSCAPGSDPRSNLCALCIGDEQGENKCVPNSNERYYGYTGAFRCLAENAGDVAFVKDVTVLQNTDGNNNEAWAKDLKLADFALLCLDGKRKPVTEARSCHLAMAPNHAVVSRMDKVERLKQVLLHQQAKFGRNGSDCPDKFCLFQSETKNLLFNDNTECLARLHGKTTYEKYLGPQYVAGITNLKKCSTSPLLEACEFLRK
modifications: full-length
inhibition of SARS-CoV-2 infection, Vero cells, 40 µg/mL [1]: ≈ 38%
binding to plasminogen (in words) (plasminogen): binds to Plg via its highly cationic N-terminal region; also recorded: bound to Plg via its highly cationic N-terminal region
inhibition of plasminogen conversion to plasmin (in words) (plasminogen): able to inhibit activation of Plg through hindering the action of urokinase-type plasminogen activator (uPA); also recorded: blocked Plg conversion to the active serine protease plasmin
uPA-independent plasminogen conversion by streptokinase (in words) (plasminogen; streptokinase as activator): not affected
dose dependence of inhibition of active plasmin (in words) (plasmin; Figure 1B inset: S-2251 in PBS): no dose-dependent inhibition; also recorded: not by LF
inhibition of proteolytic activity of plasmin (in words) (plasmin; plasmin 10 nM, Tris-HCl buffer, Boc-Gln-Ala-Arg-AMC): neither full-length LF nor a control peptide (pCTR), was able to inhibit; also recorded: neither full-length LF nor other tested peptides derived from LF, nor the control peptide pCTR, significantly reduced
inhibition of proteolytic activity of TMPRSS2 (in words) (TMPRSS2; 37°C, Tris-HCl buffer, Boc-Gln-Ala-Arg-AMC): not able to block TMPRSS2 activity; also recorded: neither full-length LF nor pCTR inhibited; also recorded: did not block TMPRSS2 activity; also recorded: neither full-length LF nor other tested peptides derived from LF, nor the control peptide pCTR, significantly reduced
dose dependence of inhibition of TMPRSS2 (in words) (TMPRSS2; Figure 1A inset): no dose-dependent inhibition; also recorded: not by LF
clinical benefit, oral (in words) ([2]; in vivo, po): major clinical benefit in human, particularly neonatal medicine
safety, oral (in words) ([2]; orally administered): considered safe and without adverse effects
inhibition of proteolytic activity of elastase (in words) (elastase): neither full-length LF nor other tested peptides derived from LF, nor the control peptide pCTR, significantly reduced
COVID-19 symptoms in clinical study (in words) (COVID-19): significantly reduced COVID-19 symptoms
SARS-CoV-2 infection in vitro (in words) (SARS-CoV-2 [3]): found to inhibit SARS-CoV-2 infection in vitro
SARS-CoV-2 infection of permissive cells (in words) (SARS-CoV-2 [4]): prevented SARS-CoV-2 infection
binding to heparin and HSPGs (in words) [5]: LF binding to both heparin and HSPGs was observed
SARS-CoV-1 infection (in words) (SARS-CoV-1): inhibited the SARS-CoV-1 infection
inhibition of SARS-CoV-2 infection, Calu-3 cells [6]: 60-70%
interferon responses (in words) (SARS-CoV-2 [7]): enhancement of interferon responses
iron homeostasis (in words) (SARS-CoV-2 [7]): maintenance of iron homeostasis
viral replication (in words) (SARS-CoV-2 [7]): inhibition of viral replication

Source: publication PMC9445877, “Blockade of TMPRSS2-mediated priming of SARS-CoV-2 by lactoferricin” (Frontiers in Immunology, 2022)
